Source: article doi:10.1101/2025.05.09.653063 (bioRxiv, 2025)
Substitutions are numbered along the chain they refer to. Names and notes keep the numbering of the source.

B1: His-tagged wild type PsmA (natural protein, Saccharolobus islandicus REY15A, UniProt C3MQ43 1-241, looked up)
chain: MAFGPAAMGYDRAITIFSPDGSLYQVDYAFEAVKKGWTAIGIKSKSGVVIASEKRKAQSLLDVDSIEKVFLIDDHVGCSFAGLASDGRVLIDYARNIALQHRLIYDEPVSIDYLTKSVADVKQMYTQHGGVRPFGVALVIAGIDKSVPKLYMTEPSGQYMPYQAVAIGQGYYTATEFLEKNYKEDLTIEDTILLALKALSATLKPNEKLTPNTVEIGYASTQTGLFLKMTSEDKNMYLQKL
B2: His-tagged PsmA S200D (natural protein, Saccharolobus islandicus REY15A, UniProt C3MQ43 1-241, looked up)
chain: B1 chain with S200D
B3: His-tagged PsmA T213E (natural protein, Saccharolobus islandicus REY15A, UniProt C3MQ43 1-241, looked up)
chain: B1 chain with T213E

Target: the molecule itself
Assay: focused ion beam electron microscopy

Stoichiometry N, 14:
B1
B2
B3
